T1: human FcγRIIB α subunit extracellular domain-6His-GST fusion (human, UniProt P31994 43-217)
T1 construct: not shown: glutathione S-transferase (GST)
T1 sequence: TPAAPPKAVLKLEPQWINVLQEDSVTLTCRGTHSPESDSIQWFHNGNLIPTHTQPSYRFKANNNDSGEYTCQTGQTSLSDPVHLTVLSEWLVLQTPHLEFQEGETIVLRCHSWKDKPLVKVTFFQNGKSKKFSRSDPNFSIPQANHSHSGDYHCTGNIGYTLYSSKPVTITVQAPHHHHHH

T2: human FcγRIIA-R131 α subunit extracellular domain-6His-GST fusion (human, UniProt P12318 34-217)
T2 construct: also called FcγRIIA-Arg131; not shown: glutathione S-transferase (GST)
T2 sequence: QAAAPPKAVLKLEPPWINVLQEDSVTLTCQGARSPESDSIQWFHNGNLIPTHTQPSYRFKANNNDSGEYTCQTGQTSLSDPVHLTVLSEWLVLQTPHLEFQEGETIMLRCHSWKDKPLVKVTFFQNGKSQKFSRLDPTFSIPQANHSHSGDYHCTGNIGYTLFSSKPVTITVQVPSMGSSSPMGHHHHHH

T3: human FcγRIIA-H131 α subunit extracellular domain-His6-GST fusion protein (human, UniProt P12318 34-217)
T3 construct: also called FcγRIIA-His131; not shown: glutathione S-transferase (GST)
T3 sequence: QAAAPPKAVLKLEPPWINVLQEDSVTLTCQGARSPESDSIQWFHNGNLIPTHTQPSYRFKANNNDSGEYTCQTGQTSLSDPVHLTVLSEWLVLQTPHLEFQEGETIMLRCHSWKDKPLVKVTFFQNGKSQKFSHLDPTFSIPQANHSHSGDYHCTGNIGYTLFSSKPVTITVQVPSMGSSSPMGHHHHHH


Experiments:
[1] = target: T4, human FcγRIIIA-F158 α subunit extracellular domain-6His-GST fusion (human, UniProt P08637 17-208); assay: ELISA, IgG:IgE hexamers on receptor-GST
T4 construct: also called FcγRIIIA-Phe158; not shown: glutathione S-transferase (GST)
T4 sequence (P08637 other isoform, or with tags, fused parts or gaps, form in doubt): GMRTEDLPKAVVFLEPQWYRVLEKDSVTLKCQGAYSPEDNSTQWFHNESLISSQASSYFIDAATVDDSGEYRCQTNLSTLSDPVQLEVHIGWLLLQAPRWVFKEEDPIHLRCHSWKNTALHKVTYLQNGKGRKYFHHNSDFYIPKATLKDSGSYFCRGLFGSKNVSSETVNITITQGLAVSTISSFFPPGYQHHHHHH

[2] = target: T1, human FcγRIIB α subunit extracellular …; assay: ELISA, IgG:IgE hexamers on receptor-GST
[3] = target: T2, human FcγRIIA-R131 α subunit …; assay: ELISA, IgG:IgE hexamers on receptor-GST
[4] = target: T3, human FcγRIIA-H131 α subunit …; assay: ELISA; binding ratio on FcγRIIA-H131 divided by that on FcγRIIA-R131
[5] = target: T3, human FcγRIIA-H131 α subunit …; assay: ELISA, IgG:IgE hexamer on coated FcγRIIA-H131-GST

| ratio to native IgG1 [1] | ratio to native IgG1 [2] | ratio to native IgG1 [3] | H131/R131 [4] | ratio of binding of the variant to that of native IgG1 [5] | Binder |
| --- | --- | --- | --- | --- | --- |
| 0.95 | 1.82 | 1.51 |  |  | E27 IgG1 variant S267(280)A/E272(285)A (antibody, also called IG2 250) heavy: not shown light: DIQLTQSPSSLSASVGDRVTITCRASKPVDGEGDSYLNWYQQKPGKAPKLLIYAASYLESGVPSRFSGSGSGTDFTLTISSLQPEDFATYYCQQSHEDPYTFGQGTKVEIKRTVAAPSVFIFPPSDEQLKSGTASVVCLLNNFYPREAKVQWKVDNALQSGNSQESVTEQDSKDSTYSLSSTLTLSKADYEKHKVYACEVTHQGLSSPVTKSFNRGEC |
| 1.53 | 0.16 | 0.34 |  |  | E27 IgG1 variant S298(317)A/E333(352)A (antibody) heavy: not shown light: DIQLTQSPSSLSASVGDRVTITCRASKPVDGEGDSYLNWYQQKPGKAPKLLIYAASYLESGVPSRFSGSGSGTDFTLTISSLQPEDFATYYCQQSHEDPYTFGQGTKVEIKRTVAAPSVFIFPPSDEQLKSGTASVVCLLNNFYPREAKVQWKVDNALQSGNSQESVTEQDSKDSTYSLSSTLTLSKADYEKHKVYACEVTHQGLSSPVTKSFNRGEC |
| 0.96 | 1.56 | 1.41 |  |  | E27 IgG1 variant S267(280)A/H268(281)A (antibody, also called IG2 96) heavy: not shown light: DIQLTQSPSSLSASVGDRVTITCRASKPVDGEGDSYLNWYQQKPGKAPKLLIYAASYLESGVPSRFSGSGSGTDFTLTISSLQPEDFATYYCQQSHEDPYTFGQGTKVEIKRTVAAPSVFIFPPSDEQLKSGTASVVCLLNNFYPREAKVQWKVDNALQSGNSQESVTEQDSKDSTYSLSSTLTLSKADYEKHKVYACEVTHQGLSSPVTKSFNRGEC |
| 1.41 | 0.22 | 0.44 |  |  | E27 IgG1 variant T256(269)A/S298(317)A (antibody, also called IG2 1059) heavy: not shown light: DIQLTQSPSSLSASVGDRVTITCRASKPVDGEGDSYLNWYQQKPGKAPKLLIYAASYLESGVPSRFSGSGSGTDFTLTISSLQPEDFATYYCQQSHEDPYTFGQGTKVEIKRTVAAPSVFIFPPSDEQLKSGTASVVCLLNNFYPREAKVQWKVDNALQSGNSQESVTEQDSKDSTYSLSSTLTLSKADYEKHKVYACEVTHQGLSSPVTKSFNRGEC |
| 1.62 | 0.19 | 0.41 |  |  | E27 IgG1 variant S298(317)A/K334(353)A (antibody) heavy: not shown light: DIQLTQSPSSLSASVGDRVTITCRASKPVDGEGDSYLNWYQQKPGKAPKLLIYAASYLESGVPSRFSGSGSGTDFTLTISSLQPEDFATYYCQQSHEDPYTFGQGTKVEIKRTVAAPSVFIFPPSDEQLKSGTASVVCLLNNFYPREAKVQWKVDNALQSGNSQESVTEQDSKDSTYSLSSTLTLSKADYEKHKVYACEVTHQGLSSPVTKSFNRGEC |
| 0.88 | 1.72 | 1.6 |  |  | E27 IgG1 variant S267(280)A/R255(268)A (antibody, also called IG2 247) heavy: not shown light: DIQLTQSPSSLSASVGDRVTITCRASKPVDGEGDSYLNWYQQKPGKAPKLLIYAASYLESGVPSRFSGSGSGTDFTLTISSLQPEDFATYYCQQSHEDPYTFGQGTKVEIKRTVAAPSVFIFPPSDEQLKSGTASVVCLLNNFYPREAKVQWKVDNALQSGNSQESVTEQDSKDSTYSLSSTLTLSKADYEKHKVYACEVTHQGLSSPVTKSFNRGEC |
| 0.9 | 0.08 | 0.11 |  |  | E27 IgG1 variant T256(269)A/D280(295)A/R292(309)A/S298(317)A/T307(326)A (antibody) heavy: EVQLVESGGGLVQPGGSLRLSCAVSGYSITSGYSWNWIRQAPGKGLEWVASIKYSGETKYNPSVKGRITISRDDSKNTFYLQMNSLRAEDTAVYYCARGSHYFGHWHFAVWGQGTLVTVSSASTKGPSVFPLAPSSKSTSGGTAALGCLVKDYFPEPVTVSWNSGALTSGVHTFPAVLQSSGLYSLSSVVTVPSSSLGTQTYICNVNHKPSNTKVDKKVEPKSCDKTHTCPPCPAPELLGGPSVFLFPPKPKDTLMISRAPEVTCVVVDVSHEDPEVKFNWYVAGVEVHNAKTKPAEEQYNATYRVVSVLAVLHQDWLNGKEYKCKVSNKALPAPIEKTISKAKGQPREPQVYTLPPSREEMTKNQVSLTCLVKGFYPSDIAVEWESNGQPENNYKTTPPVLDSDGSFFLYSKLTVDKSRWQQGNVFSCSVMHEALHNHYTQKSLSLSPGK light: DIQLTQSPSSLSASVGDRVTITCRASKPVDGEGDSYLNWYQQKPGKAPKLLIYAASYLESGVPSRFSGSGSGTDFTLTISSLQPEDFATYYCQQSHEDPYTFGQGTKVEIKRTVAAPSVFIFPPSDEQLKSGTASVVCLLNNFYPREAKVQWKVDNALQSGNSQESVTEQDSKDSTYSLSSTLTLSKADYEKHKVYACEVTHQGLSSPVTKSFNRGEC |
| 1.51 | 0.15 | 0.34 |  |  | E27 IgG1 variant S298(317)A/E333(352)A/K334(353)A (antibody, also called IG2 110) heavy: EVQLVESGGGLVQPGGSLRLSCAVSGYSITSGYSWNWIRQAPGKGLEWVASIKYSGETKYNPSVKGRITISRDDSKNTFYLQMNSLRAEDTAVYYCARGSHYFGHWHFAVWGQGTLVTVSSASTKGPSVFPLAPSSKSTSGGTAALGCLVKDYFPEPVTVSWNSGALTSGVHTFPAVLQSSGLYSLSSVVTVPSSSLGTQTYICNVNHKPSNTKVDKKVEPKSCDKTHTCPPCPAPELLGGPSVFLFPPKPKDTLMISRTPEVTCVVVDVSHEDPEVKFNWYVDGVEVHNAKTKPREEQYNATYRVVSVLTVLHQDWLNGKEYKCKVSNKALPAPIAATISKAKGQPREPQVYTLPPSREEMTKNQVSLTCLVKGFYPSDIAVEWESNGQPENNYKTTPPVLDSDGSFFLYSKLTVDKSRWQQGNVFSCSVMHEALHNHYTQKSLSLSPGK light: DIQLTQSPSSLSASVGDRVTITCRASKPVDGEGDSYLNWYQQKPGKAPKLLIYAASYLESGVPSRFSGSGSGTDFTLTISSLQPEDFATYYCQQSHEDPYTFGQGTKVEIKRTVAAPSVFIFPPSDEQLKSGTASVVCLLNNFYPREAKVQWKVDNALQSGNSQESVTEQDSKDSTYSLSSTLTLSKADYEKHKVYACEVTHQGLSSPVTKSFNRGEC |
|  |  |  | 16.6 ratio (H131 value/R131 value) | 0.45 ratio (variant/native IgG1) | anti-IgE E27 IgG1 variant Asp270Ala (antibody, also called D270(283)A; D283A) heavy: not shown light: DIQLTQSPSSLSASVGDRVTITCRASKPVDGEGDSYLNWYQQKPGKAPKLLIYAASYLESGVPSRFSGSGSGTDFTLTISSLQPEDFATYYCQQSHEDPYTFGQGTKVEIKRTVAAPSVFIFPPSDEQLKSGTASVVCLLNNFYPREAKVQWKVDNALQSGNSQESVTEQDSKDSTYSLSSTLTLSKADYEKHKVYACEVTHQGLSSPVTKSFNRGEC |
| 0.92 | 1.85 | 1.67 |  |  | E27 IgG1 variant S267(280)A/E293(310)A (antibody, also called IG2 251) heavy: not shown light: DIQLTQSPSSLSASVGDRVTITCRASKPVDGEGDSYLNWYQQKPGKAPKLLIYAASYLESGVPSRFSGSGSGTDFTLTISSLQPEDFATYYCQQSHEDPYTFGQGTKVEIKRTVAAPSVFIFPPSDEQLKSGTASVVCLLNNFYPREAKVQWKVDNALQSGNSQESVTEQDSKDSTYSLSSTLTLSKADYEKHKVYACEVTHQGLSSPVTKSFNRGEC |
| 1.21 | 0.3 | 0.47 |  |  | E27 IgG1 variant T256(269)A/D280(295)A/S298(317)A/T307(326)A (antibody, also called IG2 1051) heavy: EVQLVESGGGLVQPGGSLRLSCAVSGYSITSGYSWNWIRQAPGKGLEWVASIKYSGETKYNPSVKGRITISRDDSKNTFYLQMNSLRAEDTAVYYCARGSHYFGHWHFAVWGQGTLVTVSSASTKGPSVFPLAPSSKSTSGGTAALGCLVKDYFPEPVTVSWNSGALTSGVHTFPAVLQSSGLYSLSSVVTVPSSSLGTQTYICNVNHKPSNTKVDKKVEPKSCDKTHTCPPCPAPELLGGPSVFLFPPKPKDTLMISRAPEVTCVVVDVSHEDPEVKFNWYVAGVEVHNAKTKPREEQYNATYRVVSVLAVLHQDWLNGKEYKCKVSNKALPAPIEKTISKAKGQPREPQVYTLPPSREEMTKNQVSLTCLVKGFYPSDIAVEWESNGQPENNYKTTPPVLDSDGSFFLYSKLTVDKSRWQQGNVFSCSVMHEALHNHYTQKSLSLSPGK light: DIQLTQSPSSLSASVGDRVTITCRASKPVDGEGDSYLNWYQQKPGKAPKLLIYAASYLESGVPSRFSGSGSGTDFTLTISSLQPEDFATYYCQQSHEDPYTFGQGTKVEIKRTVAAPSVFIFPPSDEQLKSGTASVVCLLNNFYPREAKVQWKVDNALQSGNSQESVTEQDSKDSTYSLSSTLTLSKADYEKHKVYACEVTHQGLSSPVTKSFNRGEC |

From US7183387 (Genentech, dated 2007)
